This is an account of results in PMC13370731.

The target in assay [1] is MtrR‐His6 (small protein MtrR with a C‐terminal His‐tag, heterologously expressed in Escherichia coli) (Methanosarcina mazei Gö1). Kind of assay: SEC; IMAC‐purified MtrR‐His6 on an Enrich SEC 70 column, detection at 214 nm, calibrated with a standard protein mixture; phosphate buffer (50 mM sodium phosphate, 300 mM NaCl, pH 8.0); peaks at 10 and 13 mL.
The target in assay [2] is soluble domain of the MtrA subunit (M1 – S168), strep‐tagged, RED‐labeled (Methanosarcina mazei Gö1) (UniProt O59640). The experiment in a line: MST; 20 nM RED‐labeled strep‐MtrA with MtrR‐His6 in 16 concentrations (calculated on monomeric molecular mass); standard capillaries, 100% excitation power, medium MST power; MO.AFFINITY analysis; two biological replicates.

Where “and” joins values, the source holds several entries; their conditions need not be identical. Equal entries are not always repeated.

Sequence of UniProt O59640 (O59640 1-168): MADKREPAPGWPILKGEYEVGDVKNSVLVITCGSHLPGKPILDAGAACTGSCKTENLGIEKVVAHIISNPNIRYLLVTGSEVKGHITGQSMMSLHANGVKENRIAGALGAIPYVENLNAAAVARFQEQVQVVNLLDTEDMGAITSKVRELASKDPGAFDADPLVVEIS

The stoichiometry N is the number of molecules, sites or subunits per partner or assembly. In general, Kd refers to the constant that tells how readily two partners part at equilibrium. For the substance “MtrR‐His6 (small protein MtrR with a C‐terminal His‐tag, heterologously expressed in Escherichia coli) (natural protein)”, the stoichiometry N in assay [1] is 2 and < 6. In addition, the Kd in assay [2] was 110 nM.
